The Human Domainome abundance scans (Beltran et al. 2025)
± gives the uncertainty stated by the source.

B1: Homeobox protein SIX3, residues 212 to 262; numbered along this chain, O95343 (parent)
chain: CFKERTRSLLREWYLQDPYPNPSKKRELAQATGLTPTQVGNWFKNRRQRDR

Variants of: B1
Assay: abundance fitness (aPCA) (normalised: wild type 0, dead -1); higher = more abundant; growth selection in yeast, the domain comes from the species named
Settings: Homo sapiens

Abundance fitness of substitutions, site by site:
Y19: H -0.337 ± 0.14; A -0.372 ± 0.081; C -0.308 ± 0.082; L -0.352 ± 0.058; W -0.374 ± 0.09; S -0.514 ± 0.076; K -0.095 ± 0.1; E -0.591 ± 0.14; G -0.849 ± 0.07; Q -0.426 ± 0.088; N -0.313 ± 0.11; M -0.292 ± 0.11; R -0.184 ± 0.045; T -0.278 ± 0.088; D -0.368 ± 0.17; V -0.474 ± 0.048; F -0.089 ± 0.085; P -0.85 ± 0.087
W13: P -0.747 ± 0.16; C -0.08 ± 0.059; S -0.069 ± 0.079; D -0.527 ± 0.12; H -0.338 ± 0.15; A 0.015 ± 0.06; F -0.545 ± 0.2; L -0.139 ± 0.076; Q 0.026 ± 0.052; Y -0.007 ± 0.056; E -0.078 ± 0.056; V -0.075 ± 0.052; T -0.066 ± 0.072; M 0.012 ± 0.091; N 0.097 ± 0.081; K -0.399 ± 0.12; I -0.153 ± 0.13
P18: R -0.182 ± 0.062; A -0.226 ± 0.049; E -0.717 ± 0.13; S -0.474 ± 0.055; M -0.501 ± 0.11; L -0.903 ± 0.17; V -0.687 ± 0.062; F -0.672 ± 0.17; H -0.028 ± 0.17; I -0.487 ± 0.13; Q -0.286 ± 0.18; G -0.906 ± 0.085; T -0.629 ± 0.14; K -0.136 ± 0.095; C -0.032 ± 0.082
E12: K -0.314 ± 0.12; T -0.285 ± 0.056; M -0.282 ± 0.066; S -0.236 ± 0.083; V -0.608 ± 0.099; G -0.3 ± 0.042; P -0.872 ± 0.12; I -0.618 ± 0.15; F -0.45 ± 0.16; N 0.23 ± 0.12; C -0.84 ± 0.2; D -0.098 ± 0.072; W -0.185 ± 0.11; Y -0.09 ± 0.041; A -0.256 ± 0.075; L -0.426 ± 0.06
L10: H -0.868 ± 0.16; R -0.93 ± 0.077; V -1.01 ± 0.17; F -0.824 ± 0.2; Y -0.561 ± 0.36; S -0.647 ± 0.098; N -0.724 ± 0.28; Q -0.972 ± 0.15; T -0.974 ± 0.23; G -0.961 ± 0.16; M -0.381 ± 0.11; P -0.872 ± 0.093; W -1.03 ± 0.14
Y14: H -0.951 ± 0.1; S -0.667 ± 0.066; N -0.734 ± 0.16; A -0.896 ± 0.059; D -1.14 ± 0.31; C -0.822 ± 0.17; F -0.294 ± 0.091; I -0.746 ± 0.076; R -0.849 ± 0.075; G -0.833 ± 0.057; Q -0.834 ± 0.17; W -0.711 ± 0.1; E -0.893 ± 0.1; T -0.946 ± 0.062; P -0.672 ± 0.13; K -0.81 ± 0.14; M -0.891 ± 0.13; L -0.828 ± 0.056
D17: C -0.78 ± 0.27; H -1.04 ± 0.23; T -0.844 ± 0.061; P -0.753 ± 0.19; E -0.204 ± 0.078; A -0.89 ± 0.14; I -0.927 ± 0.38; S -0.627 ± 0.07; F -0.82 ± 0.39; R -0.907 ± 0.13; G -0.834 ± 0.067; K -0.665 ± 0.12; Q -0.814 ± 0.18; V -0.878 ± 0.11; N -0.599 ± 0.097; Y -1 ± 0.41; M -0.81 ± 0.14
R11: A -0.131 ± 0.053; H -0.227 ± 0.13; W -0.07 ± 0.063; G -0.302 ± 0.054; V -0.141 ± 0.053; P -0.514 ± 0.15; E -0.047 ± 0.085; I 0.004 ± 0.075; Q -0.23 ± 0.09; N -0.111 ± 0.071; M 0.077 ± 0.065; L -0.026 ± 0.058; T 0.106 ± 0.077; K -0.138 ± 0.093; S -0.021 ± 0.059; D -0.22 ± 0.058; Y -0.408 ± 0.24; F -0.061 ± 0.073; C -0.392 ± 0.16
Q16: D -0.601 ± 0.38; Y -0.382 ± 0.068; E -0.302 ± 0.069; F -0.109 ± 0.099; S -0.285 ± 0.046; P -0.712 ± 0.29; N -0.092 ± 0.13; R -0.076 ± 0.054; G -0.564 ± 0.047; M 0.13 ± 0.1; A -0.106 ± 0.046; I 0.251 ± 0.1; T -0.249 ± 0.069; K -0.212 ± 0.12; H -0.173 ± 0.14; W -0.327 ± 0.096
L15: V -0.22 ± 0.24; S -0.568 ± 0.32; Q 0.08 ± 0.07; A 0.358 ± 0.093; E -0.091 ± 0.16; W -0.551 ± 0.35; M -0.309 ± 0.2; C 0.756 ± 0.27; R 0.145 ± 0.1; D 0.114 ± 0.11
P20: E -0.756 ± 0.12; D -0.845 ± 0.13; L -0.339 ± 0.1; K -0.977 ± 0.17; A -0.425 ± 0.14; C -0.486 ± 0.29; F -0.799 ± 0.11; G -0.764 ± 0.055
